This is an account of results in PMC10279920, “Single-molecule visualization of Pif1 helicase translocation on single-stranded DNA” (The Journal of Biological Chemistry, 2023).

Test in all cases: EMSA; no ATP, 5 mM Mg2+; 35 mM Tris-HCl pH 7.5, 1 mM DTT, 5 mM MgCl2, 60 mM KCl, 0.1 mg/ml BSA, no ATP, 30 min at 30 C; 5 nM ssDNA
Settings in all cases: protein: recombinant; tags: N-terminal superfolder GFP; Ni-NTA purified; label: 5' Alexa647
In general terms: A gel shift assay detects complexes by their altered migration in electrophoresis.

In one data set the target is T1, Pif1 WT (GFP-Pif1) (Saccharomyces cerevisiae, UniProt P07271 40-859).
T1 sequence: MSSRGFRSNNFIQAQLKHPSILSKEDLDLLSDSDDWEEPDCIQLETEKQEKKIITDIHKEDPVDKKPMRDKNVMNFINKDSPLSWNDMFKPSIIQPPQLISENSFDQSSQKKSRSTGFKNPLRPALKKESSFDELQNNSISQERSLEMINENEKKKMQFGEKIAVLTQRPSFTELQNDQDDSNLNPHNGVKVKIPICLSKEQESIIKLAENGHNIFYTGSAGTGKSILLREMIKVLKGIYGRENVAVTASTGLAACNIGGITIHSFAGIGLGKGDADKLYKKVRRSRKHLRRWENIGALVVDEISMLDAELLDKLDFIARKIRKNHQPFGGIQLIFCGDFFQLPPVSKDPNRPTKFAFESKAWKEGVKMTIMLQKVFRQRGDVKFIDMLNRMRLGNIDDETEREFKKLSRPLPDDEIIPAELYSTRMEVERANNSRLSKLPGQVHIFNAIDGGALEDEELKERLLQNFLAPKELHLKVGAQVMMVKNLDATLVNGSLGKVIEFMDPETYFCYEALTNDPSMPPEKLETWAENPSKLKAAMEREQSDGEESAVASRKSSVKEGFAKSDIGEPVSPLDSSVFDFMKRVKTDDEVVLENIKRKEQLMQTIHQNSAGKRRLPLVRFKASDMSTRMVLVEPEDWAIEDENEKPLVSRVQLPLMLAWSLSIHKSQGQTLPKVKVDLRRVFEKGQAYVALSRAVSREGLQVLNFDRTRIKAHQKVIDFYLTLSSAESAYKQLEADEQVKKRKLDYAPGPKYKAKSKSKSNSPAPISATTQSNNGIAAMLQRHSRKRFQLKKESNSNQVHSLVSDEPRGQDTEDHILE

Another data set deals with T2, GFP-Pif1 F723A (Saccharomyces cerevisiae, UniProt P07271 40-859, F723A).
T2 sequence: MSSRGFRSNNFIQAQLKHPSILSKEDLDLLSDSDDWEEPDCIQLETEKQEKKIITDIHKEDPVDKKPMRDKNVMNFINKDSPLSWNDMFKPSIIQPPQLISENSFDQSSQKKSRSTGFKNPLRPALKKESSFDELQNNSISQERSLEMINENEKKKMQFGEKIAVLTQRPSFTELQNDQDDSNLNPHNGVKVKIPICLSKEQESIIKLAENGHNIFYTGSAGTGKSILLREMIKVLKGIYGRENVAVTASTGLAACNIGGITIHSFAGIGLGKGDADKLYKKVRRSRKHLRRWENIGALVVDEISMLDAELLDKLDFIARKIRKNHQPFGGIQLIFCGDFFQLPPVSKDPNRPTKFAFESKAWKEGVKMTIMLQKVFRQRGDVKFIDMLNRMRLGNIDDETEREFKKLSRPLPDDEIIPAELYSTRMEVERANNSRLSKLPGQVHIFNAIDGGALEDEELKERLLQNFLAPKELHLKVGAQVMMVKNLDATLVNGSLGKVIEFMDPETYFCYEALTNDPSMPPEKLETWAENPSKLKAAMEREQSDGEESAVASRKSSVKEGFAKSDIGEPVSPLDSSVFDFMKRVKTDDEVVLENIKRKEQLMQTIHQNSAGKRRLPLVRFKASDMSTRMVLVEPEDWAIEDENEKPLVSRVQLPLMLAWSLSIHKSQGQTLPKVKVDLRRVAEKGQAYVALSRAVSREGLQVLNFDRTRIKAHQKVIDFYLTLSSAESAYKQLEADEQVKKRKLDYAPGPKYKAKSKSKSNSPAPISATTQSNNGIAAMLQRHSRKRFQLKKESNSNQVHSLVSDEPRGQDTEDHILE

A further data set has as its target T3, GFP-Pif1 K264A (Saccharomyces cerevisiae, UniProt P07271 40-859, K264A).
T3 sequence: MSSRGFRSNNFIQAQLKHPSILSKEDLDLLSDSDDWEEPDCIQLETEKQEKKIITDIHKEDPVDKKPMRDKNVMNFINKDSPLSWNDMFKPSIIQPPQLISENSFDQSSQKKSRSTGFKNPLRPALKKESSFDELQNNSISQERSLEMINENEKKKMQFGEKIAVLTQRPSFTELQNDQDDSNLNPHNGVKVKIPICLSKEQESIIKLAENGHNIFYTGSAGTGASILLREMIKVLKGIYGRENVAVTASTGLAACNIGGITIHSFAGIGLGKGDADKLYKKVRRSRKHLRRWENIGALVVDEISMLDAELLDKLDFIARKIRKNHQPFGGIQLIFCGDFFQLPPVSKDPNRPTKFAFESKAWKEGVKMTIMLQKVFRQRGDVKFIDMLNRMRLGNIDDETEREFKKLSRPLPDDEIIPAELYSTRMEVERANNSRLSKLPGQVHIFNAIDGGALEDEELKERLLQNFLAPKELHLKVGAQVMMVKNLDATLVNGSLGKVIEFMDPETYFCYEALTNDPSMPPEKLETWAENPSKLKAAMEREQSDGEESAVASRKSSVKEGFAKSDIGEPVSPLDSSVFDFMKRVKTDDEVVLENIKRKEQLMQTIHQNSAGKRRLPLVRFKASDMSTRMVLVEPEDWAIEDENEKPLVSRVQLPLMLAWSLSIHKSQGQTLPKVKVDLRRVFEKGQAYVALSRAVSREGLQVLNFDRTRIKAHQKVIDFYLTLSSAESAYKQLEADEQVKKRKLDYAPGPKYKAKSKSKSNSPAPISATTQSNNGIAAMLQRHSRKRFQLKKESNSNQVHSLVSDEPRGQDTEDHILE

B1: 40-nt ssDNA (ssDNA)
DNA: GCTAGCAGTAGCCAGCATCGAACGTACGATCGGTAACGTA
The Kd is the equilibrium constant for the complex coming apart. In the case of B1, the results for the Kd with Pif1 WT (GFP-Pif1), in the data set with GFP-Pif1 F723A and with GFP-Pif1 K264A were 12.6 ± 3.81 nM, 55.6 ± 18.5 nM and 12.1 nM, respectively.
